The assay addresses Bpa78-βarr1 with a 2xStrep tag at the C-terminus (bovine) (UniProt P17870). The experiment in a line: cross-linking; Bpa78-βarr1-2xStrep in HEK293T cells irradiated with UV (365 nm) as intact cells, then isolated with Strep-Tactin XT (1 M NaCl, 1 M urea in the supernatant); product analysed by SDS-PAGE/blot, SEC (Superdex 200 Increase, 4°C, Buffer W), MALDI-TOF-MS and nano-HPLC/nano-ESI-Orbitrap-MS/MS.

By stoichiometry N is commonly meant the number of molecules, sites or subunits per partner or assembly. With “Bpa78-βarr1 with a 2xStrep tag at the C-terminus (from UniProt P17870 1-418) (natural protein)”, the stoichiometry N turned out to be 2.

For the origin of these results see publication PMC7645262.
